Assay results reported in patent publication US20140004175A1 (COMPUGEN, published 2014).

T1: recombinant human Ang4 carrier-free (R&D Systems, Cat#964-AN-025/CF) (human, UniProt Q9Y264 25-503, limits assumed)
T1 construct: Bought recombinant protein; also called angiopoietin 4
T1 sequence: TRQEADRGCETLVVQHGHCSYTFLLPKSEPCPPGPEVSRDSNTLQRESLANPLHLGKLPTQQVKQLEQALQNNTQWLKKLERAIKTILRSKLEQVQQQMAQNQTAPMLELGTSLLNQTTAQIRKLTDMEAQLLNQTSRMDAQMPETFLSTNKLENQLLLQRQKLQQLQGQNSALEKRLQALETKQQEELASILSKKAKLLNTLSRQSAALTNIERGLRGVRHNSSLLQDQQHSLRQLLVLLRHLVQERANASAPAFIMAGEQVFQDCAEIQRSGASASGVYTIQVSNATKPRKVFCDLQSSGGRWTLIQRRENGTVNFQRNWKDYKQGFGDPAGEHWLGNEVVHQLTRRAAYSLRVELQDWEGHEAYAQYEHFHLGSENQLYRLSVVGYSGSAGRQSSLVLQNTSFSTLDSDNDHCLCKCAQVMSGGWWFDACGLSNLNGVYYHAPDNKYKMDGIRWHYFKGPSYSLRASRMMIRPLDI

T2: recombinant human Ang1 carrier-free (R&D Systems, Cat#923-AN-025/CF) (human, UniProt Q15389 20-498, limits assumed)
T2 construct: Bought recombinant protein; also called angiopoietin 1
T2 sequence: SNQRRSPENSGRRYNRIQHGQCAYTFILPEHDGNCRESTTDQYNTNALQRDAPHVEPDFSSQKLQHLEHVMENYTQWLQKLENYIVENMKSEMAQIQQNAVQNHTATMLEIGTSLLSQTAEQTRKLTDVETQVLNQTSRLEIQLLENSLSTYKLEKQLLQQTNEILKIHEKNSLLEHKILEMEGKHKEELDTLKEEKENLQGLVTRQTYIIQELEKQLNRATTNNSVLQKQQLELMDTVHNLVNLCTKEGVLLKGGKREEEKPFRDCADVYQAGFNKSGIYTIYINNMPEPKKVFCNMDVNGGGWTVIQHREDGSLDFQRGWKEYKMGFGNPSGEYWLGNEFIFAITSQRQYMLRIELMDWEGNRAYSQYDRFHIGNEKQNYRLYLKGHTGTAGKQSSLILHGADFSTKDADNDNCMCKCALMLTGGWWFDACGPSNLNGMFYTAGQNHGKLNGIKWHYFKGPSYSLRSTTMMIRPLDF

T3: recombinant human Ang2 carrier-free (R&D Systems, Cat#623-AN-025/CF) (human, UniProt O15123 19-496)
T3 construct: Bought recombinant protein; also called angiopoietin 2
T3 sequence: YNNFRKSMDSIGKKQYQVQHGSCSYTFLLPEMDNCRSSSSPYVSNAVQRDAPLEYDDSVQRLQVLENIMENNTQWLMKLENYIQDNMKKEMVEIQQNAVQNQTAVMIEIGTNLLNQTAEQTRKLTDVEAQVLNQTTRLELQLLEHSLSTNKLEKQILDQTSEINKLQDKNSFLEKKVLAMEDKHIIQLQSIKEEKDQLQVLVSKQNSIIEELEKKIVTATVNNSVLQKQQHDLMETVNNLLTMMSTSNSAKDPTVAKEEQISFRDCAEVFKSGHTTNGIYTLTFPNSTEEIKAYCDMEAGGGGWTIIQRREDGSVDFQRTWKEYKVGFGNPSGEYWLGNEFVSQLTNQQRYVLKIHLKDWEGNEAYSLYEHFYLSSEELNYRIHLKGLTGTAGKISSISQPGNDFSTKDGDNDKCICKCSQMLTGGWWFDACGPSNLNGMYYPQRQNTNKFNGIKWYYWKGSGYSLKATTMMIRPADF


What was measured:
[1] = biological target: T1, recombinant human Ang4 carrier-free …; assay: SPR (BIAcore), Ang4 immobilised on CM5 chip, peptide injected
Procedure: (§1) Peptide-protein binding was analyzed using surface plasmon resonance. Analysis of the to interaction between CGEN-H2 [SEQ ID NO: 1], CGEN-H3 [SEQ ID NO: 2], CGEN-A8 [SEQ ID NO: 3], CGEN-H7 [SEQ ID NO: 4], CGEN-G4 [SEQ ID NO: 5], CGEN-G6 [SEQ ID NO: 6], CGEN-F9 [SEQ ID NO: 7], CGEN-F12 [SEQ ID NO: 8], CGEN-C6 [SEQ ID NO: 9], CGEN-A11 [SEQ ID NO: 10], and CGEN-G2 [SEQ ID NO: 11] peptides and recombinant human Ang1 carrier-free (R&D Systems, Cat#923-AN-025/CF, Lot#FHW1507031), human Ang2 carrier-free (R&D Systems, Cat#623-AN-025/CF, Lot#BNO0457121), and human Ang4 carrier-free (R&D Systems, Cat#964-AN-025/CF, Lot#ELM025121) was conducted using the BIAcore biosensor (Pharmacia Biosensor, Uppsala, Sweden). The recombinant Ang1, Ang2, and Ang4 were immobilized directly to a CM5 sensor chip. Solutions containing 10-50 μM of CGEN-H2 [SEQ ID NO: 1], CGEN-H3 [SEQ ID NO: 2], CGEN-A8 [SEQ ID NO: 3], CGEN-H7 [SEQ ID NO: 4], CGEN-G4 [SEQ ID NO: 5], CGEN-G6 [SEQ ID NO: 6], CGEN-F9 [SEQ ID NO: 7], CGEN-F12 [SEQ ID NO: 8], CGEN-C6 [SEQ ID NO: 9], CGEN-A11 [SEQ ID NO: 10], and CGEN-G2 [SEQ ID NO: 11] peptides were injected into the sample chamber of the BIACORE device at a rate of […] and the interaction was monitored using surface plasmon resonance. […] Binding of CGEN-C6 to Ang2 was not sufficiently strong and too noisy for kinetic measurements or determination of affinity constant.

[2] = biological target: T2, recombinant human Ang1 carrier-free …; assay: SPR competition (BIAcore), Tie-2/Fc immobilised; Ang1 100-500 nM with peptide 10-50 µM at 1:100
Procedure: Peptide-protein interaction was analyzed using surface plasmon resonance. Analysis of is the interaction between CGEN-G6 [SEQ ID NO: 6], CGEN-F9 [SEQ ID NO: 7], CGEN-C6 [SEQ ID NO: 9], CGEN-A11 [SEQ ID NO: 10], and CGEN-G2 [SEQ ID NO: 11] peptides and recombinant human Tie-2/Fc chimera (carrier-free, R&D Systems, Cat#313-TI, Lot#BKC0707121) was conducted using the BIAcore biosensor (Pharmacia Biosensor, Uppsala, Sweden). The recombinant Tie-2/Fc chimera was immobilized directly to a CM5 sensor chip. Solutions containing 10-50 μM of CGEN-G6 [SEQ ID NO: 6], CGEN-F9 [SEQ ID NO: 7], CGEN-C6 [SEQ ID NO: 9], CGEN-A11 [SEQ ID NO: 10], and CGEN-G2 [SEQ ID NO: 11] were injected into the sample chamber of the BIACORE device at a rate of 20 μl/min and the interaction was monitored using surface plasmon resonance. In addition, solutions containing 100-500 nM of Ang1, Ang2, and Ang4 proteins were injected alone or in combination with 10-50 μM of CGEN-G6 [SEQ ID NO: 6], CGEN-F9 [SEQ ID NO: 7], CGEN-C6 [SEQ ID NO: 9], CGEN-A11 [SEQ ID NO: 10], and CGEN-G2 [SEQ ID NO: 11] peptides at a constant ratio of 1:100 (Ang ligand to peptide) into the sample chamber of the BIACORE device at a rate of 20 μl/min and the interaction was monitored using surface plasmon resonance.
Binding of Ang2 to Tie2 was reduced by 91-100% after incubation with CGEN-G6 [SEQ ID NO: 6] and CGEN-C6 [SEQ ID NO: 9], and to a lesser extent after incubation with CGEN-A11 [SEQ ID NO: 10] and CGEN-F9 [SEQ ID NO: 7] peptides (FIG. 5B). […] Binding of peptides alone to Tie2 was negligible in most cases.

[3] = biological target: T3, recombinant human Ang2 carrier-free …; assay: SPR (BIAcore), Ang2 immobilised on CM5, peptide 10-50 µM
Procedure: as §1

[4] = biological target: T3, recombinant human Ang2 carrier-free …; assay: SPR (BIAcore), Ang2 immobilised on CM5, peptide 25-1.56 µM, 1:1 Langmuir fit
Procedure: (§2) Peptide-protein binding was analyzed using surface plasmon resonance. […] Solutions containing 10-50 μM of CGEN-H2 [SEQ ID NO: 1], CGEN-H3 [SEQ ID NO: 2], CGEN-A8 [SEQ ID NO: 3], CGEN-H7 [SEQ ID NO: 4], CGEN-G4 [SEQ ID NO: 5], CGEN-G6 [SEQ ID NO: 6], CGEN-F9 [SEQ ID NO: 7], CGEN-F12 [SEQ ID NO: 8], CGEN-C6 [SEQ ID NO: 9], CGEN-A11 [SEQ ID NO: 10], and CGEN-G2 [SEQ ID NO: 11] peptides were injected into the sample chamber of the BIACORE device at a rate of […] and the interaction was monitored using surface plasmon resonance. […]
(§3) Peptides CGEN-G6 [SEQ ID NO: 6], CGEN-F9 [SEQ ID NO: 7], CGEN-F12 [SEQ ID NO: 8], CGEN-A11 [SEQ ID NO: 10], and CGEN-G2 [SEQ ID NO: 11] were capable of binding to immobilized Ang1, Ang2, and Ang4 on the chip and were further analyzed for binding kinetics, as follows. Solutions containing different concentrations of CGEN-G6 [SEQ ID NO: 6], CGEN-F9 [SEQ ID NO: 7], CGEN-F12 [SEQ ID NO: 8], CGEN-A11 [SEQ ID NO: 10], and CGEN-G2 [SEQ ID NO: 11] peptides (as indicated in Table 2) were injected into the sample chamber of the BIACORE device at a rate of […] and the interaction was monitored using surface plasmon resonance.

[5] = biological target: T2, recombinant human Ang1 carrier-free …; assay: SPR (BIAcore), Ang1 immobilised on CM5, peptide 25-1.56 µM, 1:1 Langmuir fit
Procedure: as §2, §3

[6] = biological target: T1, recombinant human Ang4 carrier-free …; assay: SPR (BIAcore), Ang4 immobilised on CM5, peptide 25-1.56 µM, 1:1 Langmuir fit
Procedure: as §2, §3

[7] = biological target: T3, recombinant human Ang2 carrier-free …; assay: SPR (BIAcore), Ang2 immobilised on CM5
Procedure: as §1

[8] = biological target: T1, recombinant human Ang4 carrier-free …; assay: SPR (BIAcore), Ang4 immobilised on CM5, peptide 1.25-0.039 µM, 1:1 Langmuir fit
Procedure: as §2, §3

[9] = biological target: T2, recombinant human Ang1 carrier-free …; assay: SPR (BIAcore), Ang1 immobilised on CM5, peptide 1.25-0.039 µM, 1:1 Langmuir fit
Procedure: as §2, §3

[10] = biological target: T3, recombinant human Ang2 carrier-free …; assay: SPR (BIAcore), Ang2 immobilised on CM5, peptide 0.625-0.039 µM, 1:1 Langmuir fit
Procedure: as §2, §3

[11] = biological target: T2, recombinant human Ang1 carrier-free …; assay: SPR (BIAcore), Ang1 immobilised on CM5, peptide 0.625-0.039 µM, 1:1 Langmuir fit
Procedure: as §2, §3

[12] = biological target: T1, recombinant human Ang4 carrier-free …; assay: SPR (BIAcore), Ang4 immobilised on CM5, peptide 0.625-0.039 µM, 1:1 Langmuir fit
Procedure: as §2, §3

Binder	reduction of Ang1 binding to Tie2 [2] [%]	Kd [4] [nM]	Kd [5] [nM]	Kd [6] [nM]	Kd [10] [nM]	Kd [11] [nM]	Kd [12] [nM]	further results
Ac-QEELASILSKKAKLLNTLSRQSAALTNIERGLRGVR-NH2 (MW 4006.8) [CGEN-F9 (SEQ ID NO: 7)]	≤ 34	3070	21400	2820	–	–	–	–
Ac-DLMETVNNLLTMMSTSNSAKD-NH2 (MW 2356.8) [CGEN-G6 (SEQ ID NO: 6)]	≤ 34	–	–	–	–	–	–	binding result [7]: binds; Kd [8]: 22.1 nM; Kd [9]: 13.3 nM

Further lines, with some results ahead:

reduction of Ang1 binding to Tie2 [2] [%]	Kd [4] [nM]	Kd [5] [nM]	Kd [6] [nM]	Kd [10] [nM]	Kd [11] [nM]	Kd [12] [nM]	Binder	further results
≤ 34	–	–	–	–	–	–	Ac-TDMEAQLLNQTSRMDAQM-NH2 (MW 2124.5) [CGEN-C6 (SEQ ID NO: 9)]	binding result [1]: no binding (tested: 10-50 µM); binding result [3]: binds
≤ 34	2360	6740	3690	–	–	–	Ac-ETFLSTNKLENQ-NH2 (MW 1464.7) [CGEN-A11 (SEQ ID NO: 10)]	–
–	–	–	–	5840	1.88	0.243	Ac-QHSLRQLLVLLRHLVQERANASA-NH2 (MW 2694.3) [CGEN-F12 (SEQ ID NO: 8)]	–
–	–	–	–	56.6	17.4	25	Ac-TQQVKQLEQALQNNTQWLKKLERAIKTIL-NH2 [CGEN-G2 (SEQ ID NO: 11)]	–
